Values quoted from earlier work in paper PMC10531495.
Where two headings read alike, the source gives them in different places.

What was measured:
IAPP (Homo sapiens) [1] = biological target: IAPP (Homo sapiens) (UniProt P10997)
IAPP (Homo sapiens) [2] = biological target: IAPP (Homo sapiens) (UniProt P10997); remark: listed apart in the source
IAPP (Homo sapiens) [3] = biological target: IAPP (Homo sapiens) (UniProt P10997); remark: listed apart in the source
IAPP (Homo sapiens) [4] = biological target: IAPP (Homo sapiens) (UniProt P10997); remark: listed apart in the source
[5] = biological target: Aβ monomer (Homo sapiens) (UniProt P05067)

Sequence of IAPP (Homo sapiens) (P10997 32-73): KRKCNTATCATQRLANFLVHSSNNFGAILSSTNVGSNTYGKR
Sequence of leucine enkephalin (P01210 whole entry, looked up): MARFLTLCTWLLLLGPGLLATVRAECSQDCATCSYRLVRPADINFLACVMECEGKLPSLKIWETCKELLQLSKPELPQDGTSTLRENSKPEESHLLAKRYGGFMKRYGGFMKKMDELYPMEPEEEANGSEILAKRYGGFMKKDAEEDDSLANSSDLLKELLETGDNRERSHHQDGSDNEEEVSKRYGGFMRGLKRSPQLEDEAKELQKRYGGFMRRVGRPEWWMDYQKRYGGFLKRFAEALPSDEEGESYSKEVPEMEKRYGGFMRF

## Aβ(1–40) 1-40 (from UniProt P05067)
IAPP (Homo sapiens) [1]
  Kd: 48.5 nM

## Aβ(25–35) 25-35 (from UniProt P05067)
IAPP (Homo sapiens) [2]
  Kd: 282 nM

## Aβ(29–40) 29-40 (from UniProt P05067)
IAPP (Homo sapiens) [3]
  Kd: 200 nM

## Aβ(35–40) 35-40 (from UniProt P05067)
IAPP (Homo sapiens) [4]
  Kd: 354 nM

## leucine enkephalin (from UniProt P01210)
[5]
  Kd: 60000 nM
